T1: Homo sapiens AXL-Mus musculus Ig1 domain (p33-AXL-mIg1) (human-mouse chimera, UniProt P30530 8-894)
T1 construct: Expressed in HEK293F cells; also called hsAXL-mmIg1; hsAXL-mmIgl
T1 chain: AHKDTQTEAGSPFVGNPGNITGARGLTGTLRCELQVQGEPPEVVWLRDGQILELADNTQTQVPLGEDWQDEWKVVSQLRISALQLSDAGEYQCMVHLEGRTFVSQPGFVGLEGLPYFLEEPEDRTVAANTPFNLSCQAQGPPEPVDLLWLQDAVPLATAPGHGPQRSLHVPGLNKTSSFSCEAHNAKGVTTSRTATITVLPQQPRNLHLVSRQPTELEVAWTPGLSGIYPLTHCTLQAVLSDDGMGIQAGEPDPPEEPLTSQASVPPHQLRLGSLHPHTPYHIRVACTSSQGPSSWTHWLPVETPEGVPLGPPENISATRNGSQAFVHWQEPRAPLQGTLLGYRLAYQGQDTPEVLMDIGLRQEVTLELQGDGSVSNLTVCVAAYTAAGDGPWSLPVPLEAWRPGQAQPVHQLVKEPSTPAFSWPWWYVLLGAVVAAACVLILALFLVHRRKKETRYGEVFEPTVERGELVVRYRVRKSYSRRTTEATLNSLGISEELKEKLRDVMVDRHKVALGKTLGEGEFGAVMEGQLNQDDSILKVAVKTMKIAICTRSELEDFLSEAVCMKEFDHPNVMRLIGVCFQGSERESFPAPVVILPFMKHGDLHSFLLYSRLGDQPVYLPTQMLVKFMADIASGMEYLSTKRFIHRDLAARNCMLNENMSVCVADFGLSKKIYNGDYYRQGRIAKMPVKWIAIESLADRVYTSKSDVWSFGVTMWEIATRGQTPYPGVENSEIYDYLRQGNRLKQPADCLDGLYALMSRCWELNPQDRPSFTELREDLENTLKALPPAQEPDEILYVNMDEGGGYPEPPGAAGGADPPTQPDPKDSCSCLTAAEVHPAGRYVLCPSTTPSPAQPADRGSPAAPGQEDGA

T2: Homo sapiens AXL-Mus musculus FN2 domain (p33-AXL-mFN2) (human-mouse chimera, UniProt P30530 26-894)
T2 construct: Expressed in HEK293F cells; also called hsAXL-mmFN2; TH1021-mFN2
T2 chain: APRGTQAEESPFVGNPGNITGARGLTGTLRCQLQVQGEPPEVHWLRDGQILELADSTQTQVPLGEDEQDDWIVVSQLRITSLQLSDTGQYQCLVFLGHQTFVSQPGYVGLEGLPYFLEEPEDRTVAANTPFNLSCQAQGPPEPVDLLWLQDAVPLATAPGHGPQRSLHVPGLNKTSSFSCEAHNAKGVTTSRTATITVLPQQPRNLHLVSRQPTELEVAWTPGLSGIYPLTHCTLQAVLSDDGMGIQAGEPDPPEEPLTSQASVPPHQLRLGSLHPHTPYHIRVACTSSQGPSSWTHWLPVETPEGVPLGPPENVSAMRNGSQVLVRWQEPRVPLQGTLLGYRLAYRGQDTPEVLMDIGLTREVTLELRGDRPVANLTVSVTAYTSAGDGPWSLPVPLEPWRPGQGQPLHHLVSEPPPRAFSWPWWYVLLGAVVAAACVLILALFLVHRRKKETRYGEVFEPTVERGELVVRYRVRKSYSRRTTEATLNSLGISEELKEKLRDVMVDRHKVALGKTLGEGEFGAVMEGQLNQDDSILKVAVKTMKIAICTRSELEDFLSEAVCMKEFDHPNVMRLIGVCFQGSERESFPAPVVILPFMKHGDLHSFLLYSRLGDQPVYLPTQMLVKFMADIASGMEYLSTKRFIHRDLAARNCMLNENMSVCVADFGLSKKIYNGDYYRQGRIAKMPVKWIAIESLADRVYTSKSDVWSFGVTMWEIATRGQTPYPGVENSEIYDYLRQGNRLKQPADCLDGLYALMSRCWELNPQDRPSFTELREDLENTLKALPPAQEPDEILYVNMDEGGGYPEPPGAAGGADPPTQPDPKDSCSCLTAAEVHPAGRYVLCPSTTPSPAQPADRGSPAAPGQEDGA

T3: human AXL with a cynomolgus monkey extracellular domain (ECD) (cynomolgus monkey (Macaca …, UniProt P30530 26-894))
T3 construct: Chimera on transfected HEK293T cells; also called cynomolgus AXL; cynomolgus AXL-ECD
T3 chain: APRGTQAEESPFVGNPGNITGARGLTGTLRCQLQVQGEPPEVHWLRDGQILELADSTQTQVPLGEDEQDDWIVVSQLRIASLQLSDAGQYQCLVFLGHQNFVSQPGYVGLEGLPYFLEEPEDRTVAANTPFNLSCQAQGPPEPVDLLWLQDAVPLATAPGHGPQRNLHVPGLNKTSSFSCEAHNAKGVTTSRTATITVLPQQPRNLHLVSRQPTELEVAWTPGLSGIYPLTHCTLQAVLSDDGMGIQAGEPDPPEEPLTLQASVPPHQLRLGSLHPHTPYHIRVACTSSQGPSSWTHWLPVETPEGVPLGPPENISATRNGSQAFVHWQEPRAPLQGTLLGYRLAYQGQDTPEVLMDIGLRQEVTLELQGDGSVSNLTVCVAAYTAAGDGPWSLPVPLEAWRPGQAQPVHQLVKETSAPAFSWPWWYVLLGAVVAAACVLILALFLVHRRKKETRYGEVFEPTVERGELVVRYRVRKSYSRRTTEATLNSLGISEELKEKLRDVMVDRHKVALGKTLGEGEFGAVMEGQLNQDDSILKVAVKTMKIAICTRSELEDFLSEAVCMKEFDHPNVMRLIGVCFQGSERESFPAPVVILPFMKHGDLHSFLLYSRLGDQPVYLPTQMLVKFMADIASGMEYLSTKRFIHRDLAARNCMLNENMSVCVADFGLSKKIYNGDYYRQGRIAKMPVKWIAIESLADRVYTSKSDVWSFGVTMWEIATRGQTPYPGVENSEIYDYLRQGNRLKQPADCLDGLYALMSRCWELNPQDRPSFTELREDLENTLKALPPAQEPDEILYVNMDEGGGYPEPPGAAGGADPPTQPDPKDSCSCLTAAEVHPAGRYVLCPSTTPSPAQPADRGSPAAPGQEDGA


Experiments:
[1] = target: T1, Homo sapiens AXL-Mus musculus Ig1 …; experiment: flow cytometry, 1 µg/mL antibody, transfected HEK293F cells
human AXL (full length) = target: T4, human AXL (full length) (human, UniProt P30530 26-894); experiment: flow cytometry, HEK293T cells with full-length human AXL
T4 construct: also called TH1021-AXL; TH1021-hAXL

[2] = target: T2, Homo sapiens AXL-Mus musculus FN2 …; experiment: flow cytometry, 1 µg/mL antibody, transfected HEK293F cells
[3] = target: T3, human AXL with a cynomolgus monkey …; experiment: flow cytometry, HEK293T cells with human AXL carrying cynomolgus ECD

| Binder | binding result [1] | EC50 (human AXL (full length)) | binding result [2] | EC50 [3] |
| --- | --- | --- | --- | --- |
| IgG1-AXL-148 (antibody, V domains shown) VH: EVQLLESGGGLVQPGGSLRLSCAASGFTFSSYAMTWVRQAPGKGLEWVSAISISGGSTFYADSVKGRFTISRDNSKNTLYLQMNSLRAEDTAVYYCRGYSGYVYDAFDFWGQGTMVTVSS VL: DIQMTQSPSSLSASVGDRVTITCRASQGISNWLAWYQQKPEKAPKSLIYAASSLQSGVPSRFSGSGSGTDFTLTISSLQPEDFATYYCQQYNSYPLTFGGGTKVEIK | binds | 0.094 µg/mL | binds | 0.152 µg/mL |
| IgG1-AXL-183 (antibody, V domains shown) VH: QVQLQQWGAGLLKPSETLSLTCAVYGGSFSGYYWSWIRQPPGKGLEWIGEINQSGSTNYNPSLKSRVTISVDTSKNQFSLKLSSVTAADTSVYYCASGNWDHFFDYWGQGTLVTVSS VL: DIQMTQSPSSVSASVGDRVTITCRASQGISSWLAWYQHKPGKAPKLLIYATSSLQSGVTSRFSGSGSGTDFTLTISSLQPEDFATYYCQQAKSFPWTFGQGTKVEIK | binds | 0.526 µg/mL | binds | 0.309 µg/mL |
| IgG1-AXL-726 (antibody, V domains shown) VH: QVQLQQWGAGLLKPSETLSLTCAIDGGSFSGYYWSWIRQPPGKGLEWIGEISHSGRTNYNPSLKSRVTISIDTSKNQFSLKLSSVAAADTAVYYCARFITMIRGAIITHFDYWGQGALVTVSS VL: DIQMTQSPSSLSASVGDRVTITCRASQGISSWLAWYQQKPEKAPKSLIYAASSLQSGVPSRFSGSGSGTDFTLTISSLQPEDFATYYCQQYHSYPYTFGQGTKLEIK | binds | 0.288 µg/mL |  | 0.349 µg/mL |
| IgG1-AXL-733 (antibody, V domains shown) VH: QVQLVESGGGVVQPGRSLRLSCAASGFSFSTYAMHWVRQAPGKGLEWVAVISYDGDNKYSADSVKGRFTISRDNSKNTLYLQMNSLRAEDTAVYYCARGRKLGIDAFDIWGQGTMVTVSS VL: AIQLTQSPSSLSASVGDRVTITCRASQGISSALAWYQQKPGKAPKLLIYDASSLESGVPSRFSGSGSGTDFTLTISGLQPEDFATYYCQQFNSYPFTFGPGTKVDIK | binds | 0.176 µg/mL | binds | 0.254 µg/mL |

From patent US20180326084A1 (Genmab, published 2018)
